T1: Nod1 (human, UniProt Q9Y239 1-953)
T1 construct: also called wild-type Nod1; WT Nod1
T1 sequence: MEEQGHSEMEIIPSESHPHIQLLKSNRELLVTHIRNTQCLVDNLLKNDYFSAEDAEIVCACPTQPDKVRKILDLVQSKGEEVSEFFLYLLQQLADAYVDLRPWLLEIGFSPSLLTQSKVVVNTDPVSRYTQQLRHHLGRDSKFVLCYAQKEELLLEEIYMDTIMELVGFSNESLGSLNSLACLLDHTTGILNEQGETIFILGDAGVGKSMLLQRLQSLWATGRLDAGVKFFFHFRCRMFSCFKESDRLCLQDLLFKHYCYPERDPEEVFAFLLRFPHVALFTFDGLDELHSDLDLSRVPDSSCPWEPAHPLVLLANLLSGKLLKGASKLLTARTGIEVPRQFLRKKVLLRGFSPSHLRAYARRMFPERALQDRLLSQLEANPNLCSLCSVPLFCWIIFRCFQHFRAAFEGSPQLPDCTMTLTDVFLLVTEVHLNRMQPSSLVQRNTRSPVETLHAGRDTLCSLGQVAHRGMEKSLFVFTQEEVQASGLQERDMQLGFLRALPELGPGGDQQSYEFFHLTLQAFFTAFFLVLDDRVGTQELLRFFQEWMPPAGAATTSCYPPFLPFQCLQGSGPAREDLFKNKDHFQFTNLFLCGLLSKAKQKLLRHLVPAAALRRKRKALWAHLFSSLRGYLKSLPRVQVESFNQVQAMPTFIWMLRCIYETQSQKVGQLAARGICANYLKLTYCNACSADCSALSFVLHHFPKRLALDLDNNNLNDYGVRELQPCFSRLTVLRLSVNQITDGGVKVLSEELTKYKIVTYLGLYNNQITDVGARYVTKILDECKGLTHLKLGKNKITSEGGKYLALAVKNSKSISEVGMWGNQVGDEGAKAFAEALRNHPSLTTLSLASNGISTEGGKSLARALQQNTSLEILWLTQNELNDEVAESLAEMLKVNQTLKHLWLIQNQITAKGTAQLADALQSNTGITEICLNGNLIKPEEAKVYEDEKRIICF


What follows are binders tested against T1, Nod1 (assay: co-immunoprecipitation, tagged proteins transiently expressed in 293T cells).
From the text: The CARD and its structurally related death effector domain (DED) are peptide motifs that mediate interactions between apoptosis-regulatory proteins (Science 281:1301 (1998); Hofmann et al., Trends Biochem. Sci. 22:155 (1998)).

Row | Binder | binding result
1 | A20 (other, UniProt P21580 1-790, looked up) MAEQVLPQALYLSNMRKAVKIRERTPEDIFKPTNGIIHHFKTMHRYTLEMFRTCQFCPQFREIIHKALIDRNIQATLESQKKLNWCREVRKLVALKTNGDGNCLMHATSQYMWGVQDTDLVLRKALFSTLKETDTRNFKFRWQLESLKSQEFVETGLCYDTRNWNDEWDNLIKMASTDTPMARSGLQYNSLEEIHIFVLCNILRRPIIVISDKMLRSLESGSNFAPLKVGGIYLPLHWPAQECYRYPIVLGYDSHHFVPLVTLKDSGPEIRAVPLVNRDRGRFEDLKVHFLTDPENEMKEKLLKEYLMVIEIPVQGWDHGTTHLINAAKLDEANLPKEINLVDDYFELVQHEYKKWQENSEQGRREGHAQNPMEPSVPQLSLMDVKCETPNCPFFMSVNTQPLCHECSERRQKNQNKLPKLNSKPGPEGLPGMALGASRGEAYEPLAWNPEESTGGPHSAPPTAPSPFLFSETTAMKCRSPGCPFTLNVQHNGFCERCHNARQLHASHAPDHTRHLDPGKCQACLQDVTRTFNGICSTCFKRTTAEASSSLSTSLPPSCHQRSKSDPSRLVRSPSPHSCHRAGNDAPAGCLSQAARTPGDRTGTSKCRKAGCVYFGTPENKGFCTLCFIEYRENKHFAAASGKVSPTASRFQNTIPCLGRECGTLGSTMFEGYCQKCFIEAQNQRFHEAKRTEEQLRSSQRRDVPRTTQSTSRPKCARASCKNILACRSEELCMECQHPNQRMGPGAHRGEPAPEDPPKQRCRAPACDHFGNAKCNGYCNECFQFKQMYG | no binding
2 | DEDD (other, UniProt O75618 1-318, looked up) MAGLKRRASQVWPEEHGEQEHGLYSLHRMFDIVGTHLTHRDVRVLSFLFVDVIDDHERGLIRNGRDFLLALERQGRCDESNFRQVLQLLRIITRHDLLPYVTLKRRRAVCPDLVDKYLEETSIRYVTPRALSDPEPRPPQPSKTVPPHYPVVCCPTSGPQMCSKRPARGRATLGSQRKRRKSVTPDPKEKQTCDIRLRVRAEYCQHETALQGNVFSNKQDPLERQFERFNQANTILKSRDLGSIICDIKFSELTYLDAFWRDYINGSLLEALKGVFITDSLKQAVGHEAIKLLVNVDEEDYELGRQKLLRNLMLQALP | no binding
3 | FADD (other, UniProt Q13158 1-208, looked up) MDPFLVLLHSVSSSLSSSELTELKFLCLGRVGKRKLERVQSGLDLFSMLLEQNDLEPGHTELLRELLASLRRHDLLRRVDDFEAGAAAGAAPGEEDLCAAFNVICDNVGKDWRRLARQLKVSDTKIDSIEDRYPRNLTERVRESLRIWKNTEKENATVAHLVGALRSCQMNLVADLVQEVQQARDLQNRSGAMSPMSWNSDASTSEAS | no binding
4 | NIK (enzyme, UniProt Q99558 1-947, looked up, also called N1K) MAVMEMACPGAPGSAVGQQKELPKAKEKTPPLGKKQSSVYKLEAVEKSPVFCGKWEILNDVITKGTAKEGSEAGPAAISIIAQAECENSQEFSPTFSERIFIAGSKQYSQSESLDQIPNNVAHATEGKMARVCWKGKRRSKARKKRKKKSSKSLAHAGVALAKPLPRTPEQESCTIPVQEDESPLGAPYVRNTPQFTKPLKEPGLGQLCFKQLGEGLRPALPRSELHKLISPLQCLNHVWKLHHPQDGGPLPLPTHPFPYSRLPHPFPFHPLQPWKPHPLESFLGKLACVDSQKPLPDPHLSKLACVDSPKPLPGPHLEPSCLSRGAHEKFSVEEYLVHALQGSVSSGQAHSLTSLAKTWAARGSRSREPSPKTEDNEGVLLTEKLKPVDYEYREEVHWATHQLRLGRGSFGEVHRMEDKQTGFQCAVKKVRLEVFRAEELMACAGLTSPRIVPLYGAVREGPWVNIFMELLEGGSLGQLVKEQGCLPEDRALYYLGQALEGLEYLHSRRILHGDVKADNVLLSSDGSHAALCDFGHAVCLQPDGLGKSLLTGDYIPGTETHMAPEVVLGRSCDAKVDVWSSCCMMLHMLNGCHPWTQFFRGPLCLKIASEPPPVREIPPSCAPLTAQAIQEGLRKEPIHRVSAAELGGKVNRALQQVGGLKSPWRGEYKEPRHPPPNQANYHQTLHAQPRELSPRAPGPRPAEETTGRAPKLQPPLPPEPPEPNKSPPLTLSKEESGMWEPLPLSSLEPAPARNPSSPERKATVPEQELQQLEIELFLNSLSQPFSLEEQEQILSCLSIDSLSLSDDSEKNPSKASQSSRDTLSSGVHSWSSQAEARSSSWNMVLARGRPTDTPSYFNGVKVQIQSLNGEHLHIREFHRVKVGDIATGISSQIPAAAFSLVTKDGQPVRYDMEVPDSGIDLQCTLAPDGSFAWSWRVKHGQLENRP | no binding
5 | IKKb (enzyme, UniProt O14920 1-756, looked up, also called IKKβ) MSWSPSLTTQTCGAWEMKERLGTGGFGNVIRWHNQETGEQIAIKQCRQELSPRNRERWCLEIQIMRRLTHPNVVAARDVPEGMQNLAPNDLPLLAMEYCQGGDLRKYLNQFENCCGLREGAILTLLSDIASALRYLHENRIIHRDLKPENIVLQQGEQRLIHKIIDLGYAKELDQGSLCTSFVGTLQYLAPELLEQQKYTVTVDYWSFGTLAFECITGFRPFLPNWQPVQWHSKVRQKSEVDIVVSEDLNGTVKFSSSLPYPNNLNSVLAERLEKWLQLMLMWHPRQRGTDPTYGPNGCFKALDDILNLKLVHILNMVTGTIHTYPVTEDESLQSLKARIQQDTGIPEEDQELLQEAGLALIPDKPATQCISDGKLNEGHTLDMDLVFLFDNSKITYETQISPRPQPESVSCILQEPKRNLAFFQLRKVWGQVWHSIQTLKEDCNRLQQGQRAAMMNLLRNNSCLSKMKNSMASMSQQLKAKLDFFKTSIQIDLEKYSEQTEFGITSDKLLLAWREMEQAVELCGRENEVKLLVERMMALQTDIVDLQRSPMGRKQGGTLDDLEEQARELYRRLREKPRDQRTEGDSQEMVRLLLQAIQSFEKKVRVIYTQLSKTVVCKQKALELLPKVEEVVSLMNEDEKTVVRLQEKRQKELWNLLKIACSKVRGPVSGSPDSMNASRLSQPGQLMSQPSTASNSLPEPAKKSEELVAEAHNLCTLLENAIQDTVREQDQSFTALDWSWLQTEEEEHSCLEQAS | no binding
6 | Ced-4 (other, UniProt P30429 1-549, looked up) MLCEIECRALSTAHTRLIHDFEPRDALTYLEGKNIFTEDHSELISKMSTRLERIANFLRIYRRQASELGPLIDFFNYNNQSHLADFLEDYIDFAINEPDLLRPVVIAPQFSRQMLDRKLLLGNVPKQMTCYIREYHVDRVIKKLDEMCDLDSFFLFLHGRAGSGKSVIASQALSKSDQLIGINYDSIVWLKDSGTAPKSTFDLFTDILLMLKSEDDLLNFPSVEHVTSVVLKRMICNALIDRPNTLFVFDDVVQEETIRWAQELRLRCLVTTRDVEISNAASQTCEFIEVTSLEIDECYDFLEAYGMPMPVGEKEEDVLNKTIELSSGNPATLMMFFKSCEPKTFEKMAQLNNKLESRGLVGVECITPYSYKSLAMALQRCVEVLSDEDRSALAFAVVMPPGVDIPVKLWSCVIPVDICSNEEEQLDDEVADRLKRLSKRGALLSGKRMPVLTFKIDHIIHMFLKHVVDAQTIANGISILEQRLLEIGNNNVSVPERHIPSHFQKFRRSSASEMYPKTTEETVIRPEDFPKFMQLHQKFYDSLKNFACC | no binding

More lines, now with the values ahead:

Row | binding result | Binder
7 | no binding | Caspase-3 (enzyme, UniProt P42574 1-277, looked up) MENTENSVDSKSIKNLEPKIIHGSESMDSGISLDNSYKMDYPEMGLCIIINNKNFHKSTGMTSRSGTDVDAANLRETFRNLKYEVRNKNDLTREEIVELMRDVSKEDHSKRSSFVCVLLSHGEEGIIFGTNGPVDLKKITNFFRGDRCRSLTGKPKLFIIQACRGTELDCGIETDSGVDDDMACHKIPVEADFLYAYSTAPGYYSWRNSKDGSWFIQSLCAMLKQYADKLEFMHILTRVNRKVATEFESFSFDATFHAKKQIPCIVSMLTKELYFYH
8 | no binding | IKKa (enzyme, UniProt O15111 1-745, looked up, also called IKKα) MERPPGLRPGAGGPWEMRERLGTGGFGNVCLYQHRELDLKIAIKSCRLELSTKNRERWCHEIQIMKKLNHANVVKACDVPEELNILIHDVPLLAMEYCSGGDLRKLLNKPENCCGLKESQILSLLSDIGSGIRYLHENKIIHRDLKPENIVLQDVGGKIIHKIIDLGYAKDVDQGSLCTSFVGTLQYLAPELFENKPYTATVDYWSFGTMVFECIAGYRPFLHHLQPFTWHEKIKKKDPKCIFACEEMSGEVRFSSHLPQPNSLCSLVVEPMENWLQLMLNWDPQQRGGPVDLTLKQPRCFVLMDHILNLKIVHILNMTSAKIISFLLPPDESLHSLQSRIERETGINTGSQELLSETGISLDPRKPASQCVLDGVRGCDSYMVYLFDKSKTVYEGPFASRSLSDCVNYIVQDSKIQLPIIQLRKVWAEAVHYVSGLKEDYSRLFQGQRAAMLSLLRYNANLTKMKNTLISASQQLKAKLEFFHKSIQLDLERYSEQMTYGISSEKMLKAWKEMEEKAIHYAEVGVIGYLEDQIMSLHAEIMELQKSPYGRRQGDLMESLEQRAIDLYKQLKHRPSDHSYSDSTEMVKIIVHTVQSQDRVLKELFGHLSKLLGCKQKIIDLLPKVEVALSNIKEADNTVMFMQGKRQKEIWHLLKIACTQSSARSLVGSSLEGAVTPQTSAWLPPTSAEHDHSLSCVVTPQDGETSAQMIEENLNCLGHLSTIIHEANEEQGNSMMNLDWSWLTE
9 | no binding | Caspase-7 (enzyme, UniProt P55210 1-303, looked up) MADDQGCIEEQGVEDSANEDSVDAKPDRSSFVPSLFSKKKKNVTMRSIKTTRDRVPTYQYNMNFEKLGKCIIINNKNFDKVTGMGVRNGTDKDAEALFKCFRSLGFDVIVYNDCSCAKMQDLLKKASEEDHTNAACFACILLSHGEENVIYGKDGVTPIKDLTAHFRGDRCKTLLEKPKLFFIQACRGTELDDGIQADSGPINDTDANPRYKIPVEADFLFAYSTVPGYYSWRSPGRGSWFVQALCSILEEHGKDLEIMQILTRVNDRVARHFESQSDDPHFHEKKQIPCVVSMLTKELYFSQ

— patent US20030049732A1 (Human Genome Sciences, published 2003)
